Assay results: patent US20220056139A1

Molecular target: HLA-DR (human)
Assay: flow cytometry on Raji cells, APC mouse anti-human IgG (FIG. 21B)

B1: huLym-1-B antibody (antibody, human IgG1, V domains shown)
VH: EVQLVESGGGLVQPGRSLRLTCTASGFSLTSYGVHWVRQPPGKGLEWLAVIWSDGSTTYNSALKSRLTISKDNSKSQVYLQMNSLRAEDTAVYYCARHYGSTLAFASWGQGTLVTVSS
VL: DIQMTQSPSSLSASVGDRVTITCRASVNIYSYLAWYQQKPGKAPNLLIYNAKILAEGVPSRFSGSGSGTDFTLTISSLQPEDFASYYCQHHYGTFTFGQGTKVEIK
  fold higher ED50 than chLym-1: 2 fold
